Among the data in patent publication US20200199236A1 are Kd values, retold here.

One assay deals with FcγRIIIa 158F (UniProt P08637). In words: biosensor with SA sensor, biotin-FcγRIIIa 158F loaded, antibody in solution.
In a further assay the target is FcγRIIIa 158V (UniProt P08637). Put plainly: biosensor with SA sensor, biotin-FcγRIIIa 158V loaded, antibody in solution (7 concentrations, 2x gradient from 500 nM).
FcγRIIIa 158V, sequence (P08637 17-208 F176V): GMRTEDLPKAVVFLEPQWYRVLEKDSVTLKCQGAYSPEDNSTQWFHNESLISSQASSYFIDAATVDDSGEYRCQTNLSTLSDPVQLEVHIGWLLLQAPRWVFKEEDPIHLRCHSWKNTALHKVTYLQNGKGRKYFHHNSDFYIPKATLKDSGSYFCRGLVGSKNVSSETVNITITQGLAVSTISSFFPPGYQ

FcγRIIIa 158F, sequence (P08637 17-208 limits assumed): as the sequence (P08637 17-208 F176V) above, with V160F counted along it

On to Obinutuzumab (antibody), for which the Kd (usually the constant that tells how readily two partners part at equilibrium) was found to be 226 nM with FcγRIIIa 158F and 36.8 nM in the assay with FcγRIIIa 158V.
